The values that follow are results of earlier work, collected in patent publication US20190382462A1, “METHODS AND COMPOSITIONS FOR TREATING HPA HYPERACTIVITY” (priority 2017, published 2019).

Where two headings read alike, the source gives them in different places.

For data set [1] the following is noted: humans; cited from earlier work.
For another data set, the target named is T1, Ucn1 (Homo sapiens, UniProt P55089).
T1 construct: the related peptide urocortin 1 (Ucn1)
T1 sequence (P55089 83-122 limits assumed): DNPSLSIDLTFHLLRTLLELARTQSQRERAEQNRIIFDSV
The settings on record: cited from earlier work.

The target of another data set is T2, CRF (Homo sapiens, UniProt P06850).
T2 construct: Biotinylated CRF was immobilized on an avidin-coated ELISA plate
T2 sequence (P06850 154-194 limits assumed): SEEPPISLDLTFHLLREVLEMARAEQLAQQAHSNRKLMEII
The settings on record: cited from earlier work.

Another data set deals with T3, r/hCRF (Homo sapiens, UniProt P06850).
T3 sequence (P06850 154-194 limits assumed): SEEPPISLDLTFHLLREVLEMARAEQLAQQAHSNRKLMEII
The settings on record: cited from earlier work; for loss of affinity for r/hCRF: alanine mutants of CRF-BP.

The next data set concerns the target T4, rUcn 1 (Rattus norvegicus, UniProt P55090).
T4 sequence (P55090 81-120 limits assumed): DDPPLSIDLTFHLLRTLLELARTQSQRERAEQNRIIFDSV
To be noted: cited from earlier work; for loss of affinity for rUcn 1: alanine mutants of CRF-BP.

B1: CRF-BP: binding protein that specifically binds to CRF (protein, UniProt P24387 25-322, looked up)
Corticotropin-releasing …: YLELREAADYDPFLLFSANLKRELAGEQPYRRALRCLDMLSLQGQFTFTADRPQLHCAAFFISEPEEFITIHYDQVSIDCQGGDFLKVFDGWILKGEKFPSSQDHPLPSAERYIDFCESGLSRRSIRSSQNVAMIFFRVHEPGNGFTLTIKTDPNLFPCNVISQTPNGKFTLVVPHQHRNCSFSIIYPVVIKISDLTLGHVNGLQLKKSSAGCEGIGDFVELLGGTGLDPSKMTPLADLCYPFHGPAQMKVGCDNTVVRMVSSGKHVNRVTFEYRQLEPYELENPNGNSIGEFCLSGL
One may read the Kd as the constant that tells how readily two partners part at equilibrium. Turning to B1, the plasma half-life result in data set [1] was “minutes”. Also, the Kd was 0.1 nM with Ucn1; 0.1 to 0.2 nM with CRF (range printed without naming the ligand, read-out: KD (high affinity of CRF-BP)); 0.2 nM with CRF (read-out: KD for CRF).

B2: CRFBPC237A/C264A: CRF-BP derivative lacking the cysteines of the fourth disulfide bridge (C237/C264) (protein, UniProt P24387 25-322, looked up, variant C237A C264A)
Corticotropin-releasing …: YLELREAADYDPFLLFSANLKRELAGEQPYRRALRCLDMLSLQGQFTFTADRPQLHCAAFFISEPEEFITIHYDQVSIDCQGGDFLKVFDGWILKGEKFPSSQDHPLPSAERYIDFCESGLSRRSIRSSQNVAMIFFRVHEPGNGFTLTIKTDPNLFPCNVISQTPNGKFTLVVPHQHRNCSFSIIYPVVIKISDLTLGHVNGLQLKKSSAGAEGIGDFVELLGGTGLDPSKMTPLADLAYPFHGPAQMKVGCDNTVVRMVSSGKHVNRVTFEYRQLEPYELENPNGNSIGEFCLSGL
B2: the “affinity for r/hCRF compared with WT CRF-BP” value with r/hCRF is recorded as “indistinguishable from that of WT CRF-BP”. The “affinity for rUcn 1 compared with WT CRF-BP” value in the data set with rUcn 1 is reported as “indistinguishable from that of WT CRF-BP”.

B3: W116A: CRF-BP alanine mutant (protein, UniProt P24387 25-322, looked up, variant W116A)
Corticotropin-releasing …: YLELREAADYDPFLLFSANLKRELAGEQPYRRALRCLDMLSLQGQFTFTADRPQLHCAAFFISEPEEFITIHYDQVSIDCQGGDFLKVFDGAILKGEKFPSSQDHPLPSAERYIDFCESGLSRRSIRSSQNVAMIFFRVHEPGNGFTLTIKTDPNLFPCNVISQTPNGKFTLVVPHQHRNCSFSIIYPVVIKISDLTLGHVNGLQLKKSSAGCEGIGDFVELLGGTGLDPSKMTPLADLCYPFHGPAQMKVGCDNTVVRMVSSGKHVNRVTFEYRQLEPYELENPNGNSIGEFCLSGL
For B3, the “loss of affinity for r/hCRF” value in the data set with r/hCRF was “complete”. Moreover, the “loss of affinity for rUcn 1” value in the data set with rUcn 1 is “complete”.

B4: E121A: CRF-BP alanine mutant (protein, UniProt P24387 25-322, looked up, variant E121A)
Corticotropin-releasing …: YLELREAADYDPFLLFSANLKRELAGEQPYRRALRCLDMLSLQGQFTFTADRPQLHCAAFFISEPEEFITIHYDQVSIDCQGGDFLKVFDGWILKGAKFPSSQDHPLPSAERYIDFCESGLSRRSIRSSQNVAMIFFRVHEPGNGFTLTIKTDPNLFPCNVISQTPNGKFTLVVPHQHRNCSFSIIYPVVIKISDLTLGHVNGLQLKKSSAGCEGIGDFVELLGGTGLDPSKMTPLADLCYPFHGPAQMKVGCDNTVVRMVSSGKHVNRVTFEYRQLEPYELENPNGNSIGEFCLSGL
Regarding B4, the “loss of affinity for r/hCRF” value in the data set with r/hCRF is recorded as “partial”. In addition, in the data set with rUcn 1, the “loss of affinity for rUcn 1” value was “partial”.

B5: CRF-BPC277A/C318A: CRF-BP derivative lacking the cysteines of the fifth disulfide bridge (C277/C318) (protein, UniProt P24387 25-322, looked up, variant C277A C318A)
Corticotropin-releasing …: YLELREAADYDPFLLFSANLKRELAGEQPYRRALRCLDMLSLQGQFTFTADRPQLHCAAFFISEPEEFITIHYDQVSIDCQGGDFLKVFDGWILKGEKFPSSQDHPLPSAERYIDFCESGLSRRSIRSSQNVAMIFFRVHEPGNGFTLTIKTDPNLFPCNVISQTPNGKFTLVVPHQHRNCSFSIIYPVVIKISDLTLGHVNGLQLKKSSAGCEGIGDFVELLGGTGLDPSKMTPLADLCYPFHGPAQMKVGADNTVVRMVSSGKHVNRVTFEYRQLEPYELENPNGNSIGEFALSGL
For the molecule B5, in the data set with r/hCRF, the “affinity for r/hCRF compared with WT CRF-BP” value was “indistinguishable from that of WT CRF-BP”. In the data set with rUcn 1, the “affinity for rUcn 1 compared with WT CRF-BP” value is reported as “indistinguishable from that of WT CRF-BP”.

B6: F123A: CRF-BP alanine mutant (protein, UniProt P24387 25-322, looked up, variant F123A)
Corticotropin-releasing …: YLELREAADYDPFLLFSANLKRELAGEQPYRRALRCLDMLSLQGQFTFTADRPQLHCAAFFISEPEEFITIHYDQVSIDCQGGDFLKVFDGWILKGEKAPSSQDHPLPSAERYIDFCESGLSRRSIRSSQNVAMIFFRVHEPGNGFTLTIKTDPNLFPCNVISQTPNGKFTLVVPHQHRNCSFSIIYPVVIKISDLTLGHVNGLQLKKSSAGCEGIGDFVELLGGTGLDPSKMTPLADLCYPFHGPAQMKVGCDNTVVRMVSSGKHVNRVTFEYRQLEPYELENPNGNSIGEFCLSGL
For the molecule B6, in the data set with r/hCRF, the “loss of affinity for r/hCRF” value is “partial”. Besides, the “loss of affinity for rUcn 1” value in the data set with rUcn 1 was “partial”.

B7: L61A: CRF-BP alanine mutant (protein, UniProt P24387 25-322, looked up, variant L61A)
Corticotropin-releasing …: YLELREAADYDPFLLFSANLKRELAGEQPYRRALRCADMLSLQGQFTFTADRPQLHCAAFFISEPEEFITIHYDQVSIDCQGGDFLKVFDGWILKGEKFPSSQDHPLPSAERYIDFCESGLSRRSIRSSQNVAMIFFRVHEPGNGFTLTIKTDPNLFPCNVISQTPNGKFTLVVPHQHRNCSFSIIYPVVIKISDLTLGHVNGLQLKKSSAGCEGIGDFVELLGGTGLDPSKMTPLADLCYPFHGPAQMKVGCDNTVVRMVSSGKHVNRVTFEYRQLEPYELENPNGNSIGEFCLSGL
As for B7, in the data set with r/hCRF, the “loss of affinity for r/hCRF” value was “partial”. Further, the “loss of affinity for rUcn 1” value with rUcn 1 is “partial”.

B8: Q188A: CRF-BP alanine mutant (protein, UniProt P24387 25-322, looked up, variant Q188A)
Corticotropin-releasing …: YLELREAADYDPFLLFSANLKRELAGEQPYRRALRCLDMLSLQGQFTFTADRPQLHCAAFFISEPEEFITIHYDQVSIDCQGGDFLKVFDGWILKGEKFPSSQDHPLPSAERYIDFCESGLSRRSIRSSQNVAMIFFRVHEPGNGFTLTIKTDPNLFPCNVISATPNGKFTLVVPHQHRNCSFSIIYPVVIKISDLTLGHVNGLQLKKSSAGCEGIGDFVELLGGTGLDPSKMTPLADLCYPFHGPAQMKVGCDNTVVRMVSSGKHVNRVTFEYRQLEPYELENPNGNSIGEFCLSGL
With B8, the “loss of affinity for r/hCRF” value with r/hCRF is “partial”. For the same molecule, the “loss of affinity for rUcn 1” value with rUcn 1 is recorded as “partial”.

B9: Y211A: CRF-BP alanine mutant (protein, UniProt P24387 25-322, looked up, variant Y211A)
Corticotropin-releasing …: YLELREAADYDPFLLFSANLKRELAGEQPYRRALRCLDMLSLQGQFTFTADRPQLHCAAFFISEPEEFITIHYDQVSIDCQGGDFLKVFDGWILKGEKFPSSQDHPLPSAERYIDFCESGLSRRSIRSSQNVAMIFFRVHEPGNGFTLTIKTDPNLFPCNVISQTPNGKFTLVVPHQHRNCSFSIIAPVVIKISDLTLGHVNGLQLKKSSAGCEGIGDFVELLGGTGLDPSKMTPLADLCYPFHGPAQMKVGCDNTVVRMVSSGKHVNRVTFEYRQLEPYELENPNGNSIGEFCLSGL
For the molecule B9, in the data set with r/hCRF, the “loss of affinity for r/hCRF” value is “complete”. Moreover, the “loss of affinity for rUcn 1” value with rUcn 1 is recorded as “complete”.
